Measured values: patent US7470769B2, “Epidermal growth factor receptor antagonists and methods of use” (Molecular Logix, Inc., priority 2004, dated 2008)

What was measured:
EGFR = EGFR (Homo sapiens, UniProt P00533); test: EGFR dimerization (FIG. 6)
[1] = target: T1, EGFR in the form of A431 cell membrane receptor preparations (Homo sapiens, UniProt P00533); test: EGFR kinase competition ELISA; assay type: biochemical; settings: 50 nM human EGF added
T1 construct: EGFR in the form of A431 cell membrane receptor preparations; endogenous in cells; host or cells: A431 cell membranes
Method: (§1) To examine the kinase activity of epidermal growth factor receptor (EGFR) in the presence of hEGF and EGF variants, an ELISA was developed. Briefly, an ELISA plate is coated with poly-glu, tyr (4:1) which serves as a substrate for tyrosine phosphorylation by the EGFR. The ELISA plate is then incubated with assay buffer, which includes an ATP generating system, EGFR in the form of A431 cell membrane receptor preparations, and EGF variant. After a 15 minute incubation ATP is added to the reaction to allow the kinase activity to proceed. Anti-phosphotyrosine antibody is added to bind to the phosphorylated tyrosine bound to the plate. Anti-mouse HRP conjugate antibody is added as the detection antibody, which is visualized with the addition of tetramethyl benzidine (TMB).
The EGFR kinase competition assay is basically the same as outlined above in the description of the kinase ELISA. The difference is that in the initial incubation with the EGFR and EGF variant, 50 nM human EGF is added which competes with the EGF variant for binding to the EGFR. Both the variant EGF and the human EGF are added to the assay plate before the addition of the EGFR and assay buffer, making sure neither ligand has an advantage in binding to the EGFR.

[2] = target: T1, EGFR in the form of A431 cell membrane receptor preparations; test: EGFR kinase ELISA; assay type: biochemical; settings: variant alone, compared with MLX hEGF
Method: as §1
The glycine at position 18 was replaced by glutamate (G18E), glutamine (G18Q), lysine (G18K), phenylalanine (G18F), and leucine (G18L). These variants were tested in the kinase assay described above and compared with recombinant wild-type human EGF (MLX hEGF).
The following variations in the glycine at position 39 were made: G39E, G39Q, G39K, and G39L.

[3] = tested on: hEGF-stimulated cell proliferation; test: Inhibition of hEGF-stimulated cell proliferation (FIG. 4, FIG. 5); assay type: cell-based; settings: figure legends, cell line not stated
BALB/3T3 cells = test: BALB/3T3 proliferation competition assay with hEGF; assay type: cell-based, murine; settings: 0.5 nM and 5.0 nM hEGF, 48 hours
Method: The BALB/3T3 proliferation assay was modified to test variants for competition with hEGF in the stimulation of BALB/3T3 cell proliferation. Serial dilutions of the test mutants were tested for proliferation in the presence of 0 nM, 0.5 nM, and 5 nM of the MLX-hEGF. BALB/3T3 cells were suspended at 3E4 cells/ml in complete serum media. 100 ul of cell suspension was plated per well in 96-well plates and incubated for 20-24 hours. Media was then aspirated from the wells, and the cells were washed once with DPBS. His-tagged wild-type hEGF at twice the final concentration was added in 50 ul/well. Serial dilutions of test mutants were prepared at twice the final concentration in serum-free media and 50 ul was added per well, bringing the final volume per well to 100 ml at the target concentrations of wt-hEGF and test mutants. Assay plates were incubated for 48 hours and cell proliferation was determined with WST-1 cell proliferation reagent (10 ul/well, 5 hr incubation). The absorbance at 450 nm was read with a microplate reader.

[4] = tested on: HER5 cell line (expresses the human EGF receptor); test: HER5 cell proliferation assay (WST-1); assay type: cell-based, murine; settings: 48 hour proliferation, serum-free, WST-1 OD 450
Method: The HER5 cell line, a murine fibroblast line (derived from the NR-6 line) that has been stably transfected to express the human EGF receptor was provided by Dr. M. C. Hung (MD Anderson Cancer Center). Stock cultures of HER5 were propagated in D-MEM/F12 medium containing 10% fetal bovine serum, 100 units/ml of penicillin and 100 ug/ml of streptomycin in a water-jacketed incubator at 37° C. in a humidified 5% CO2 atmosphere. For HER5 proliferation assays, the cells were changed into DMEM/F12 without serum for 24 hours. Cells were then trypsinized and suspended at 1E5 cells/ml. Serial dilutions of hEGF (PeproTech, Rocky Hill, N.J.), His-tagged hEGF, test proteins were prepared in serum-free DMEM/F12 at 2-fold the final concentration and plated into the wells of 96-well plates. Fifty microliters of cell suspension (5000 cells) were added to appropriate wells bringing the total volume to 100 ul at the desired concentrations. Plates were incubated for a 48 hour proliferation period. Cell proliferation was determined by addition of 10 ul/well of WST-1 Cell Proliferation Reagent (Roche Applied Sciences, Indianapolis, Ind.) for the last three hours of the proliferation period. […] The amount of formazan was measured at 450 nm using a microplate reader (Dynex Technologies) with MRX Revelation software.

Substance | triggering of EGFR dimerization (EGFR) | competition with hEGF-related stimulation of EGFR kinase [1] | activation of the EGFR kinase [2] | inhibition of hEGF-stimulated cell proliferation [3] | competition with hEGF in stimulation of BALB/3T3 cell proliferation (BALB/3T3 cells) | potency in the HER5 proliferation assay [4]
V35EG39L: hEGF polypeptide variant, glycine 39 substituted with leucine and valine 35 with glutamic acid (NSDSECPLSHDGYCLHDGVCMYIEALDKYACNCVEGYILERCQYRDLKWWELR; not fully specified; left off: small tags and cut ends) | does not trigger EGFR dimerization | marked interference with hEGF-related stimulation of EGFR kinase | unable to activate the EGFR kinase | inhibition of hEGF-stimulated cell proliferation | – | –
G39K: hEGF polypeptide variant, G39 replaced by lysine (NSDSECPLSHDGYCLHDGVCMYIEALDKYACNCVVGYIKERCQYRDLKWWELR; not fully specified; left off: small tags and cut ends) | – | – | some slight activity | – | Apparent competition was observed at both hEGF concentrations | least potency in that series
G39L: hEGF polypeptide variant, G39 replaced by leucine (NSDSECPLSHDGYCLHDGVCMYIEALDKYACNCVVGYILERCQYRDLKWWELR; not fully specified; left off: small tags and cut ends) | – | marked interference with hEGF-related stimulation of EGFR kinase | – | inhibition of hEGF-stimulated cell proliferation | only seen in at 0.5 nM hEGF | least potency in that series
G39E: hEGF polypeptide variant, G39 replaced by glutamate (NSDSECPLSHDGYCLHDGVCMYIEALDKYACNCVVGYIEERCQYRDLKWWELR; not fully specified; left off: small tags and cut ends) | – | – | some slight activity | – | – | –
